Measured values: patent US20100173334A1

What was measured:
[1] = biological target: haptoglobin β chain derived from benign disease (serum of patients with benign prostatic disease) (human) (UniProt P00738); assay: serum Western blot, Scion image densitometry; mean of 43 patients with benign prostatic disease
[2] = biological target: haptoglobin β chain derived from cancer (serum or cells of cancer patients) (human) (UniProt P00738); assay: serum Western blot; the same 15 patients after radical prostatectomy
[3] = biological target: haptoglobin β chain derived from cancer (serum or cells of cancer patients) (human) (UniProt P00738); assay: sandwich ELISA: RM2 captured on anti-mouse IgM plate, diluted serum, detection with rabbit anti-haptoglobin polyclonal; mean of 12 sera of prostate cancer
[4] = biological target: haptoglobin β chain derived from cancer (serum or cells of cancer patients) (human) (UniProt P00738); assay: serum Western blot; urothelial cancer, superficial (n=18)
[5] = biological target: haptoglobin β chain derived from cancer (serum or cells of cancer patients) (human) (UniProt P00738); assay: serum Western blot; 15 prostate cancer patients before radical prostatectomy
[6] = biological target: haptoglobin β chain derived from cancer (serum or cells of cancer patients) (human) (UniProt P00738); assay: serum Western blot, Scion image densitometry; mean of 62 patients with early prostate cancer
[7] = biological target: haptoglobin β chain derived from benign disease (serum of patients with benign prostatic disease) (human) (UniProt P00738); assay: sandwich ELISA: RM2 captured on anti-mouse IgM plate, diluted serum, detection with rabbit anti-haptoglobin polyclonal; mean of 12 sera of benign prostatic disease
[8] = biological target: haptoglobin β chain derived from cancer (serum or cells of cancer patients) (human) (UniProt P00738); assay: serum Western blot; urothelial cancer, muscle invasive or advanced (n=19)

- RM2 reaction level to GPX (normalized to 75 kDa band) (ratio of band density to the 75 kDa band) [1]: 0.35
- RM2 reaction level to GPX (normalized to 75 kDa band) (ratio of band density to the 75 kDa band) [2]: 0.6
- absorbance at 450 nm (absorbance at 450 nm) [3]: 1.1
- RM2 reaction (the value normalized to RM2 reaction to 75 kDa protein) (ratio of band density to the 75 kDa band) [4]: 0.31
- RM2 reaction level to GPX (normalized to 75 kDa band) (ratio of band density to the 75 kDa band) [5]: 0.92
- RM2 reaction level to GPX (normalized to 75 kDa band) (ratio of band density to the 75 kDa band) [6]: 0.96
- absorbance at 450 nm (absorbance at 450 nm) [7]: 0.58
- RM2 reaction (the value normalized to RM2 reaction to 75 kDa protein) (ratio of band density to the 75 kDa band) [8]: 0.96
Substance: monoclonal antibody RM2
